The target of the data set is T1, Heat gamma.
T1 chain: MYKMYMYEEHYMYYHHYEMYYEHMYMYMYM

The text below walks through data of patent US20060205646.

B1: activated recombinant MMP2 (protein)
chain: YNFFPRKPKWDKNQITYRIIGYTPDLDPETVDDAFARAFQVWSDVTPLRFSRIHDGEADIMINFGRWEHGDGYPFDGKDGLLAHAFAPGTGVGGDSHFDDDELWTLGEGQVVRVKYGNADGEYCKFPFLFNGKEYNSCTDTGRSDGFLWCSTTYNFEKDGKYGFCPHEALFTMGGNAEGQPCKFPFRFQGTSYDSCTTEGRTDGYRWCGTTEDYDRDKKYGFCPETAMSTVGGNSEGAPCVFPFTFLGNKYESCTSAGRSDGKMWCATTANYDDDRKWGFCPDQGYSLFLVAAHEFGHAMGLEHSQDPGALMAPIYTYTKNFRLSQDDIKGIQELYGASPDIDLGTGPTPTLGPVTPEICKQDIVFDGIAQIRGEIFFFKDRFIWRTVTPRDKPMGPLLVATFWPELPEKIDAVYEAPQEEKAVFFAGNEYWIYSASTLERGYPKPLTSLGLPPDVQRVDAAFNWSKNKKTYIFAGDKFWRYNEVKKKMDPGFPKLIADAWNAIPDNLDAVVDLQGGGHSYFFKGAYYLKLENQSLKSVKFGSIKSDWLGC
Consider B1, for which the “cleavage of Fluorogenic Peptide substrate I by 0.2 µg activated recombinant MMP2, 60 µg Heat Gamma” value is “Heat gamma efficiently inhibits the MMP2 activity as indicated by a decrease in relative fluorescence”.

B2: activated recombinant MMP1 (protein)
chain: FVLTEGNPRWEQTHLTYRIENYTPDLPRADVDHAIEKAFQLWSNVTPLTFTKVSEGQADIMISFVRGDHRDNSPFDGPGGNLAHAFQPGPGIGGDAHFDEDERWTNNFREYNLHRVAAHELGHSLGLSHSTDIGALMYPSYTFSGDVQLAQDDIDGIQAIYGRSQNPVQPIGPQTPKACDSKLTFDAITTIRGEVMFFKDRFYMRTNPFYPEVELNFISVFWPQLPNGLEAAYEFADRDEVRFFKGNKYWAVQGQNVLHGYPKDIYSSFGFPRTVKHIDAALSEENTGKTYFFVANKYWRYDEYKRSMDPGYPKMIAHDFPGIGHKVDAVFMKDGFFYFFHGTRQYKFDPKTKRILTLQKANSWFNCRKN
Turning to B2, the “cleavage of Fluorogenic Peptide substrate I by 0.2 µg activated recombinant MMP1, 60 µg Heat Gamma” value was “Heat gamma efficiently inhibits the MMP1 activity as indicated by a decrease in relative fluorescence”.
